In US20240294650A1 (Alector, published 2024):
One block for each binder: values may come before it.

Assays:
[1] = target: T1, His tag-conjugated recombinant ProS (human, UniProt P07225 42-676, limits assumed); assay: ELISA, captured Ab, ProS-His 10 ug/ml, no MerTK
T1 construct: bought; also called Protein S; ProS1 (R&D systems, Cat #9489-PS-100)
T1 sequence (looked up): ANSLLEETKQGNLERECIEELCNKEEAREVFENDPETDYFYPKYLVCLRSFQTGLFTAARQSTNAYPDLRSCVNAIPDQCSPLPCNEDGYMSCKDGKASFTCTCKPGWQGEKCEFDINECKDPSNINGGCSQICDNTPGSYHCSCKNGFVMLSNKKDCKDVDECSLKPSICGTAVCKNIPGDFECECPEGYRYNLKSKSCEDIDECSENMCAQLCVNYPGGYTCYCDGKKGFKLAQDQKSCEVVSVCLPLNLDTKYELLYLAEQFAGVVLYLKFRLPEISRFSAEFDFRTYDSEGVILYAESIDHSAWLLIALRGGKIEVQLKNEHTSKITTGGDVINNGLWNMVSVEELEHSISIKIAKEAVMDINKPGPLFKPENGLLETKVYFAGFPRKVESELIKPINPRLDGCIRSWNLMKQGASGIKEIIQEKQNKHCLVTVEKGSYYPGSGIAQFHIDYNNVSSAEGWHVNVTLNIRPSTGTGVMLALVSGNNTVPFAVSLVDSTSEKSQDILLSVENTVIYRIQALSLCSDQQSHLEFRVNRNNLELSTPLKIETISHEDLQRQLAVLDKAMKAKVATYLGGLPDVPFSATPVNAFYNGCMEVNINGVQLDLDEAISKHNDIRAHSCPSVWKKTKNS

[2] = target: T2, MerTK C-terminal ECD Half-and-half chimera (human); assay: SPR, construct supernatant over immobilised Ab
T2 construct: tested as culture supernatant; also called MerTK C-term half-and-half chimera; MerTK C-terminal ECD (FN1-FN2-JM) + Axl N-terminal ECD (NT-Ig1-Ig2)
T2 chain: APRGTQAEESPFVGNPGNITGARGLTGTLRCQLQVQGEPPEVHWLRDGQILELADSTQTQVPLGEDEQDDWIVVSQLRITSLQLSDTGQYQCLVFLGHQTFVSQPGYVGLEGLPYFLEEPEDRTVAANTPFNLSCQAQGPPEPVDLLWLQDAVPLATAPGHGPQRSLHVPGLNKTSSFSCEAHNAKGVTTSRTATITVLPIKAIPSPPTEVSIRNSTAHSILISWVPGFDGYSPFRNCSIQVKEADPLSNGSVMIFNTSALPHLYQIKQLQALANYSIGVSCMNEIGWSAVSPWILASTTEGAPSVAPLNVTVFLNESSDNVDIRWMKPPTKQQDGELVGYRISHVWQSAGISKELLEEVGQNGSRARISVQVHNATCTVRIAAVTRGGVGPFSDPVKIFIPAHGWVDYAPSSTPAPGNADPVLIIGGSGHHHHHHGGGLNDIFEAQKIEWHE
In short: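 Anti-MerTK antibodies amine-coupled in duplicate on an HC30M chip; supernatants carrying MerTK/Axl domain-swap or deletion constructs diluted 1:1 in HBS-TE with 0.5 mg/mL BSA and injected over them. Regeneration with 10 mM glycine pH2.0; loss or gain of binding used to map antibody domain epitopes.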

[3] = target: T3, recombinant murine MerTK extracellular domain (mouse, UniProt Q60805 19-497); assay: SPR Carterra LSA
T3 construct: also called Mouse MerTK; murine MerTK ECD; not shown: polyHis or TEVS/Thrombin/murine IgG2a-Fc tag
T3 sequence: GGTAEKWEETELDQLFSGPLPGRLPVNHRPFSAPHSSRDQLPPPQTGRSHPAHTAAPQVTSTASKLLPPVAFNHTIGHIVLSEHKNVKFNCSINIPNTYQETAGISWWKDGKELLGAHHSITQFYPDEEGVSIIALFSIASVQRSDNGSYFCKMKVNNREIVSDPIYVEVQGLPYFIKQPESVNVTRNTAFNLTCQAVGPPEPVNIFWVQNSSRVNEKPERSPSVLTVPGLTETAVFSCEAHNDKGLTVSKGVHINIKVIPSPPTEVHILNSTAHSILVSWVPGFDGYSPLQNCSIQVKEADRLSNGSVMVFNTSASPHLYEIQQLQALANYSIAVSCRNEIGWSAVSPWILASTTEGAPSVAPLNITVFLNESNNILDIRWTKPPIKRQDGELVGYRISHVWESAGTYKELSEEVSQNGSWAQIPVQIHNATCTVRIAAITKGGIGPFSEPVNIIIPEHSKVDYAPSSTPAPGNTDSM

binding result [1]: binds
binding result [2]: no binding
B1: MTK-231 (antibody, human IgG1, V domains shown)
VH: DVQLQESGPGLVKPSQSLSLTCSVTGYSITSGYYWNWIRQFPGNKLEWMGYISYDGTYNYHPSLKNRISITRDTSKNQFFLTLNSVTTEDTATFYCTRGGGYWGQGTSVTVSS
VL: DVVMTQTPLSLPVSLGDQASISCRSSQSLVHSDGNTYLHWYLQKPGQSPKLLIYKVSNRFSGVPDRFSGSGSGTDFTLKISRLEAEDLGIYFCSQTTHIPLTFGSGTKLEIK

binding result [1]: binds
binding result [2]: no binding
Ratio of KD for Mouse vs Human MerTK [3]: 0.08 ratio
B2: MTK-213 (antibody, human IgG1, V domains shown)
VH: QVQLQQPGAELVKPGASVKMSCKASGYTFTSYWITWVKQRPGQGHEWIGEIYPGIGSTNYNEKFKSKATLTVDTSSRTAYMQLSSLTSEDSAVYFCARGAYTKYYFDYWGQGTTLTVSS
VL: DIVMTQSHKFMSTSVGDRVSITCKASQDVGDAVAWYQQKPGQTPKLLIYWASTRHTGVPDRFTGSGSGTDFTLTISNVQSEDLADYFCQQYSSYLMYTFGGGTKLEIK

binding result [1]: binds
Ratio of KD for Mouse vs Human MerTK [3]: 64.2 ratio
B3: MTK-224 (antibody, human IgG1, V domains shown)
VH: QVQLQQPGAELVKPGASVKVSCKASGYTFTSYWMHWVKQRPGQGLEWIGRIHPFDSDTNYNQKFKGKATLTVDKSSSTAYMQLSSLTSEDSAVYYCSIAGFAYWGQGTLVTVSA
VL: DIVMTQSPATLSVTPGDRVSLSCRASQIISDYLNWYQQKSHESPRLLIKYASQSISGIPSRFSGSGSGSDFTLSINSVEPEDVGVYYCQNGHSFPLTFGAGTKLELK

binding result [1]: binds
Ratio of KD for Mouse vs Human MerTK [3]: 32 ratio
B4: MTK-214 (antibody, human IgG1, V domains shown)
VH: QVQLQQPGAELVKPGASVKVSCKASGYTFTNYWMHWMKQRPGQGLEWIGRIHPFDSDTNYNEKFTDKATLTVDKSSSTAYMQLSSLTSEDSAVYYCAIGTLIYWGQGTTLTASS
VL: DILLTQSPATLSVTPGETVSLSCRASQSIYKKLHWFQQRSHRSPRLLIKFASDSISGIPSRFTGSGSGTDYTLSINSVKPEDEAIYYCLQGYSTPLTFGAGTKLELK
